# “Also recorded” adds a separate entry of the source. Like-named read-outs stand apart in the source and are kept apart here. Marks after values point to notes of the source that are not given here.
# Legend:
# [1] = tested on: Micrococcus lysodeikticus ATTC No. 4698; test: Lysozyme activity turbidity assay (optical density drop at 540 nm); conditions: for Lysozyme activity against Micrococcus lysodeikticus (in words): OD drop assay
# [2] = tested on: Exiguobacterium undea (DSM14481); test: as above; format: biochemical, Exiguobacterium undae
# [3] = tested on: Clostridium perfringens DSM756; format: cell-based; conditions: for Diameter of clearing zone (mm): lysozymes 100 μg/ml, Bacitracin zinc salt 50 μg/ml; for Antimicrobial activity against Clostridium perfringens (in words): RDA, tested conditions (1/10 MHB pH 7 and 1/2 MHB pH 6)
# [4] = tested on: Micrococcus lysodeiktikus ATCC No. 4698 cells; test: Binding of LED to M. lysodeiktikus suspension (SDS gel of supernatant); conditions: for Binding of LED protein to M. lysodiektikus cells (in words): 25 mM Na-Acetate, pH 4.5, 25 mM NaCl
# [5] = Binding of LED to Avicel suspension (SDS gel of supernatant); conditions: for Binding of LED protein to crystalline cellulose (in words): 25 mM Na-Acetate, pH 4.5, 25 mM NaCl
# [6] = Thermostability by Differential Scanning Calorimetry (DSC); format: physicochemical; conditions: 50 mM Na-acetate, DSC 200 K/hour
# [7] = In vivo broiler trial (growth performance)
# [8] = tested on: M. lysodeikticus substrate; test: Temperature stability: residual activity by OD drop after heat treatment; conditions: for Residual activity (%): OD drop pH 6
# [9] = In vivo piglet trial (growth performance); design: species or system weaned piglets (Large-White x Redon); conditions: for ADFI (g/d), Mean / ADWG (g/d), Mean / FCR, Mean: SEQ ID NO: 257 50 mg/kg feed, VevoVital 5000 mg/kg feed; for ADFI, % relative NC / ADWG, % relative NC / FCR, % relative NC: relative to negative control
# [10] = Finisher (d 36-42), SEQ ID NO: 257 25 mg/kg feed, Avilamycin 10 mg/kg
# [11] = Finisher (d 36-42), relative to unsupplemented control
# [12] = Grower (d 22-36), SEQ ID NO: 257 25 mg/kg feed, Avilamycin 10 mg/kg
# [13] = Grower (d 22-36), relative to unsupplemented control
# [14] = Starter (d 1-22), SEQ ID NO: 257 25 mg/kg feed, Avilamycin 10 mg/kg
# [15] = Starter (d 1-22), relative to unsupplemented control
# [16] = Whole period (day 1 to day 42), SEQ ID NO: 257 25 mg/kg feed, Avilamycin 10 mg/kg
# [17] = Whole period, relative to unsupplemented control
molecule,measurement,setting,value
"SEQ ID NO: 280: mature GH24 lysozyme from Acremonium alcalophilum, mature sequence of SEQ ID NO: 6 of WO 2013/076259; no LED (protein, listed as Acremonium alcalophilum, mat_peptide (1)..(157), no LED) QCVGPAINSAALNLIKEFEGWRPNIYRDPVGLPTVGYGHLCRDSSCSDVPYPIPLSVANGERLLRSDLATASSVVLNANQYGALVSWAFNVGCGATSTSTLIRRLNAGESPNTVAAQELPRWNKAGGQVLPGLVRRRAAEVELHRTSTSVRALPACS",Lysozyme activity against Micrococcus lysodeikticus (in words),[1],small amount of activity
same,Lysozyme Activity against Micrococcus lysodeikticus as measured by Optical Density Drop,[1]; assay pH 4.5,+
same,Lysozyme Activity against Exiguobacterium undae as measured by Optical Density Drop,[2]; assay pH 3-7,−
same,Diameter of clearing zone (mm),"[3]; Experiment 1, 1/2 MHB pH 6",0 mm
same,Diameter of clearing zone (mm),"[3]; Experiment 1, 1/10 MHB pH 7",0 mm
same,Diameter of clearing zone (mm),"[3]; Experiment 2, 1/10 MHB pH 7",0 mm
same,Antimicrobial activity against Clostridium perfringens (in words),[3],do not have any activity; also recorded: did not inhibit growth
"SEQ ID NO: 273: mature LED (lysozyme enhancing domain) from Trichophaea saccata (protein, mat_peptide (1)..(73), mature LED (lysozyme enhancing domain) from Trichophaea saccata) YPVKTDLHCRSSPSTSASIVRTYSSGTEVQIQCQTTGTSVQGSNVWDKTQHGCYVADYYVKTGHSGIFTTKCG",Binding of LED protein to M. lysodiektikus cells (in words),[4],binds
same,Binding of LED protein to M. lysodiektikus cells (in words),[4]; listed as LED protein,able to bind
same,Result: LED band intensity on an SDS gel (supernatant after incubation),"[4]; Suspension: M. lysodeiktikus, 30 minutes room temperature",+
same,Result: LED band intensity on an SDS gel,"[4]; Suspension: None (untreated LED sample, reference for both suspensions)",+++
same,Binding of LED protein to crystalline cellulose (in words),[5],did not bind
same,Binding of LED protein to crystalline cellulose (in words),[5]; listed as LED protein,could not bind
same,Result: LED band intensity on an SDS gel (supernatant after incubation),"[5]; Suspension: Avicel, 30 minutes room temperature",+++
"SEQ ID NO: 257: mature GH24 lysozyme from Trichophaea saccata, comprising a GH24 domain and a lysozyme enhancing domain (LED) (protein, listed as Trichophaea saccata, mat_peptide (1)..(245)) YPVKTDLHCRSSPSTSASIVRTYSSGTEVQIQCQTTGTSVQGSNVWDKTQHGCYVADYYVKTGHSGIFTTKCGSSSGGGSCKPPPINAATVALIKEFEGFVPKPAPDPIGLPTVGYGHLCKTKGCKEVPYSFPLTQETATKLLQSDIKTFTSCVSNYVKDSVKLNDNQYGALASWAFNVGCGNVQTSSLIKRLNAGENPNTVAAQELPKWKYAGGKVMPGLVRRRNAEVALFKKPSSVQAHPPKC",Denaturation Temperature Td (° C.),[6]; pH 4.5,70.0 °C
same,Denaturation Temperature Td (° C.),[6]; pH 5.5,70.8 °C
same,Denaturation Temperature Td (° C.),[6]; pH 6.5,69.7 °C
same,FCR,[7]; [10],1.919
same,Feed intake (g/b),[7]; [10],1524 g/b
same,Weight gain (g/b),[7]; [10],800 g/b
same,"FCR, Relative to C (%)",[7]; [11],97.9%
same,"Feed intake, Relative to C (%)",[7]; [11],102.5%
same,"Weight gain, Relative to C (%)",[7]; [11],105.1%
same,FCR,[7]; [12],1.714
same,Feed intake (g/b),[7]; [12],2336 g/b
same,Weight gain (g/b),[7]; [12],1364 g/b
same,"FCR, Relative to C (%)",[7]; [13],99.5%
same,"Feed intake, Relative to C (%)",[7]; [13],102.2%
same,"Weight gain, Relative to C (%)",[7]; [13],102.7%
same,FCR,[7]; [14],1.414
same,Feed intake (g/b),[7]; [14],1603 g/b
same,Weight gain (g/b),[7]; [14],1133 g/b
same,"FCR, Relative to C (%)",[7]; [15],98.1%
same,"Feed intake, Relative to C (%)",[7]; [15],101.6%
same,"Weight gain, Relative to C (%)",[7]; [15],103.4%
same,EPEF,[7]; [16],425
same,FCR,[7]; [16],1.657
same,Feed intake (g/b),[7]; [16],5450 g/b
same,Motality,[7]; [16],10.0
same,Weight gain (g/b),[7]; [16],3290 g/b
same,"EPEF, Relative to C (%)",[7]; [17],101.7%
same,"FCR, Relative to C (%)",[7]; [17],98.6%
same,"Feed intake, Relative to C (%)",[7]; [17],101.9%
same,"Weight gain, Relative to C (%)",[7]; [17],103.3%
same,EPEF improvement compared to NC diet,"[7]; whole period, GH24 lysozyme 25 mg/kg",1.7%
same,FCR improvement compared to NC diet,"[7]; whole period, GH24 lysozyme 25 mg/kg, Avilamycin 10 mg/kg",1.4%
same,Lysozyme activity against Micrococcus lysodeikticus (in words),[1],good activity
same,Lysozyme Activity against Micrococcus lysodeikticus as measured by Optical Density Drop,[1]; assay pH 6,++
same,Lysozyme activity against Exiguobacterium undea (in words),[2]; OD drop assay,good activity
same,Lysozyme Activity against Exiguobacterium undae as measured by Optical Density Drop,[2]; assay pH 6,++
same,Diameter of clearing zone (mm),"[3]; Experiment 1, 1/2 MHB pH 6",11 mm
same,Diameter of clearing zone (mm),"[3]; Experiment 1, 1/10 MHB pH 7",9 mm
same,Diameter of clearing zone (mm),"[3]; Experiment 2, 1/10 MHB pH 7",8 mm
same,Antimicrobial activity against Clostridium perfringens (in words),[3],significant activity; also recorded: showed antimicrobial activity
same,Time for which the lysozyme is stable,[8]; at temperatures as high as 99° C.,at least 90 seconds
same,Residual activity (%),[8]; heat treatment 30 sec at 60 °C,93%
same,Residual activity (%),[8]; heat treatment 30 sec at 65 °C,99%
same,Residual activity (%),[8]; heat treatment 30 sec at 70 °C,94%
same,Residual activity (%),[8]; heat treatment 30 sec at 75 °C,101%
same,Residual activity (%),[8]; heat treatment 30 sec at 80 °C,94%
same,Residual activity (%),[8]; heat treatment 30 sec at 85 °C,98%
same,Residual activity (%),[8]; heat treatment 30 sec at 90 °C,94%
same,Residual activity (%),[8]; heat treatment 30 sec at 95 °C,98%
same,Residual activity (%),[8]; heat treatment 30 sec at 99 °C,93%
same,Residual activity (%),[8]; heat treatment 60 sec at 60 °C,99%
same,Residual activity (%),[8]; heat treatment 60 sec at 65 °C,97%
same,Residual activity (%),[8]; heat treatment 60 sec at 70 °C,93%
same,Residual activity (%),[8]; heat treatment 60 sec at 75 °C,96%
same,Residual activity (%),[8]; heat treatment 60 sec at 80 °C,98%
same,Residual activity (%),[8]; heat treatment 60 sec at 85 °C,94%
same,Residual activity (%),[8]; heat treatment 60 sec at 90 °C,99%
same,Residual activity (%),[8]; heat treatment 60 sec at 95 °C,94%
same,Residual activity (%),[8]; heat treatment 60 sec at 99 °C,97%
same,Residual activity (%),[8]; heat treatment 90 sec at 60 °C,96%
same,Residual activity (%),[8]; heat treatment 90 sec at 65 °C,99%
same,Residual activity (%),[8]; heat treatment 90 sec at 70 °C,98%
same,Residual activity (%),[8]; heat treatment 90 sec at 75 °C,98%
same,Residual activity (%),[8]; heat treatment 90 sec at 80 °C,97%
same,Residual activity (%),[8]; heat treatment 90 sec at 85 °C,100%
same,Residual activity (%),[8]; heat treatment 90 sec at 90 °C,97%
same,Residual activity (%),[8]; heat treatment 90 sec at 95 °C,102%
same,Residual activity (%),[8]; heat treatment 90 sec at 99 °C,89%
same,"ADFI (g/d), Mean",[9]; day 0-14,333 g/day
same,"ADWG (g/d), Mean",[9]; day 0-14,265 g/day
same,"FCR, Mean",[9]; day 0-14,1.272^b
same,"ADFI, % relative NC",[9]; day 0-14,92.5%
same,"ADWG, % relative NC",[9]; day 0-14,91.4%
same,"FCR, % relative NC",[9]; day 0-14,102.6%
same,"ADFI (g/d), Mean",[9]; day 0-42,740^b g/d
same,"ADWG (g/d), Mean",[9]; day 0-42,538 g/day
same,"FCR, Mean",[9]; day 0-42,1.379^a
same,"ADFI, % relative NC",[9]; day 0-42,100.8%
same,"ADWG, % relative NC",[9]; day 0-42,107.8%
same,"FCR, % relative NC",[9]; day 0-42,92.9%
same,"ADFI (g/d), Mean",[9]; day 14-42,944^c g/d
same,"ADWG (g/d), Mean",[9]; day 14-42,674 g/day
same,"FCR, Mean",[9]; day 14-42,1.404^a
same,"ADFI, % relative NC",[9]; day 14-42,101.5%
same,"ADWG, % relative NC",[9]; day 14-42,111.8%
same,"FCR, % relative NC",[9]; day 14-42,90.9%
same,Improvement on FCR compared to the negative control,"[9]; overall period (day 0 to day 42), lysozyme 50 mg/kg, VevoVital 5000 mg/kg",7.1%
same,Improvement of ADWG compared to NC,[9]; starter period (days 14-42),11.8%
same,Improvement to FCR compared to NC,"[9]; starter period, from day 15 to day 42, SEQ ID NO: 257 50 mg/kg, VevoVital (PC)",9.1%
same,Improvement of ADWG compared to NC,[9]; whole period (day 0 to day 42),7.8%

# From US12324447B2, “Animal feed compositions and uses thereof” (priority 2015, dated 2025)
